Measured values published in article PMC3787745, “Yeast Mnn9 is both a priming glycosyltransferase and an allosteric activator of mannan biosynthesis” (Open Biology, 2013).

Target: T1, ScVan1 (Saccharomyces cerevisiae Van1p glycosyltransferase domain, residues 87-535) (S. cerevisiae, UniProt P23642 87-535)
T1 construct: Van1p, S. cerevisiae S288c, lacking the first 86 amino acid residues (cytoplasmic domain, transmembrane domain and predicted disordered region); glycosyltransferase domain 87-535; Cloned into pNIFTY/MBP (MBP, hexahistidine, TEV site at the N-terminus); the tag was cleaved off with TEV protease; also called ScVan1p; V1; source: E. coli BL21(DE3) pLysS, purified (Ni-IMAC, TEV cleavage, anion …)
T1 sequence (looked up): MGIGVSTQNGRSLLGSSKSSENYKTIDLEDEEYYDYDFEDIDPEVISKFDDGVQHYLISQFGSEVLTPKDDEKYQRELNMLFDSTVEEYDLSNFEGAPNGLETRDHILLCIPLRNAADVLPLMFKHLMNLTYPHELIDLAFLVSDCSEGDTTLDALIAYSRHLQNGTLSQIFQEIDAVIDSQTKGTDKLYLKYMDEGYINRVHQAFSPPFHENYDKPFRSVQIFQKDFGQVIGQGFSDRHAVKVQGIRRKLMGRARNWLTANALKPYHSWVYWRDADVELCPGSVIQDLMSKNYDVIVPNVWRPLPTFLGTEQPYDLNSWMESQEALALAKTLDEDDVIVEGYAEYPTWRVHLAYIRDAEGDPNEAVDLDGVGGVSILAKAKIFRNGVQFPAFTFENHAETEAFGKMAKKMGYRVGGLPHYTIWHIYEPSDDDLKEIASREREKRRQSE
Experiment: BLI; Octet RED384; biotinylated ScMnn9 bound at 25 µg/ml to streptavidin sensors; ScVan1 at 0 to 15 µM in buffer C (100 mM HEPES pH 7.5, 5 mM MnCl2, 1 mg/ml BSA, 0.015% BRIJ 35); association 10 min, dissociation 20 min; triplicate, full kinetic fit
Settings: both partners purified

B1: ScMnn9 (Saccharomyces cerevisiae Mnn9p glycosyltransferase core, residues 93-395) (domain or fragment, S. cerevisiae, UniProt P39107 93-395, looked up)
chain: EGHIAHYDLNKLHSTSEAAVNKEHILILTPMQTFHQQYWDNLLQLNYPRELIELGFITPRTATGDLALKKLENAIKKVQTDKKTQRFSKITILRQNSQSFDKLMEKERHALDVQKERRAAMALARNELLFSTIGPHTSWVLWLDADIIETPPSLIQDMTKHNKAILAANIYQRFYDEEKKQPSIRPYDFNNWQESDTGLEIASQMGDDEIIVEGYAEIATYRPLMAHFYDANGVPGEEMALDGVGGGCTLVKAEVHRDGAMFPNFPFYHLIETEGFAKMAKRLNYDVFGLPNYLVYHIEEENH
modifications: biotinylated with EZ-link NHS-PEG4-Biotin
notes: Mnn9p, S. cerevisiae S288c, lacking the first 92 amino acid residues (cytoplasmic domain, transmembrane domain and predicted disordered region); glycosyltransferase core 93-395; Cloned into pNIFTY/MBP (MBP, hexahistidine, TEV site at the N-terminus); PDB 3ZF8 holds the D236N mutant of the same limits; also called ScMnn9p; M9; source: E. coli BL21(DE3) pLysS, purified (Ni-IMAC, TEV cleavage, anion …)
**Q.** How did the Kd turn out when B1 was run?
**A.** 480 nM

**Q.** And the koff?
**A.** 0.00032 s⁻¹

**Q.** And the kon?
**A.** 620 M⁻¹ s⁻¹
